# Source: patent US6960454B2, “Methods for making and using a thermophilic enzyme as a β-glycosidase” (Director-General of Agency of Industrial Science and …, priority 1998, dated 2005)
# Read-outs that look alike come from different tables or passages of the source.
# B1: his-tagged BGPh from P. horikoshii (His-BGPh) (Pyrococcus horikoshii OT3) (protein)
# chain: MPLKFPEMFLFGTATSSHQIEGNNRWNDWWYYEQIGKLPYRSGKACNHWELYRDDIQLMTSLGYNAYRFSIEWSRLFPEENKFNEDAFMKYREIIDLLLTRGITPLVTLHHFTSPLWFMKKGGFLREENLKHWEKYIEKVAELLEKVKLVATFNEPMVYVMMGYLTAYWPPFIRSPFKAFKVAANLLKAHAIAYELLHGKFKVGIVKNIPIILPASDKERDRKAAEKADNLFNWHFLDAIWSGKYRGVFKTYRIPQSDADFIGVNYYTASEVRHTWNPLKFFFEVKLADISERKTQMGWSVYPKGIYMALKKASRYGRPLYITENGIATLDDEWRVEFIIQHLQYVHKAIEDGLDVRGYFYWSFMDNYEWKEGFGPRFGLVEVDYQTFERRPRKSAYVYGEIARSKEIKDELLKRYGLPELQL
# What was measured:
# [1] = molecular target: T1, Sβ-gly from S. solfataricus strain MT-4 (Saccharolobus solfataricus, UniProt P22498); details: cited from earlier work; for Km / kcat: Sβ-gly, 75° C. and pH 6.5; for efficiency of hydrolysis by Sβ-gly: in words
# [2] = molecular target: T1, Sβ-gly from S. solfataricus strain MT-4; assay: Kinetic parameters of substrate hydrolysis by Sβ-gly (from references 7, 21); format: biochemical, Sulfolobus solfataricus
# [3] = molecular target: his-tagged BGPh from P. horikoshii (His-BGPh) (Pyrococcus horikoshii, UniProt O58104); format: biochemical; details: for kcat: His-BGPh, 90° C. and pH 6.0; for efficiency of hydrolysis by His-BGPh: in words
# Protocol: (§1) The enzyme reactions were carried out at 90° C. in a solution […] containing the substrate and the purified His-BGPh in 50 mM phosphate buffer (pH 6) with 0.1% Triton X-100 and 0.3 M NaCl. For the hydrolysis of p-nitrophenyl (p-Nph) β-D-saccharides, the reaction was terminated by the addition of 1 M Na2CO3 (1 ml), then centrifuged at 15,000×g for 10 min. The concentration of the p-Nph group in the supernatant was quantified by measuring the absorbance at 400 nm. For the hydrolysis of β-D-glucoside, the released glucose was analyzed with a Glucose C-II Test kit (Wako Pure Chemicals, Japan). Initial velocities were obtained directly from the initial slopes of the time course plots. The Km and kcat values were calculated using the Michaelis-Menten equation and the least squares method (12). The subsite affinity for a long alkyl chain was determined using the method reported previously (13-15) on the basis of the subsite theory (16).
# [4] = substrate: CCCCCCCCCO[C@@H]1O[C@H](CO)[C@@H](O)[C@H](O)[C@H]1O; assay: purified protein, by the assay type; format: biochemical; details: other: His-BGPh, 90° C. and pH 6.0
# Protocol: (§2) The enzyme reactions were carried out at 90° C. in a solution (200 ml) containing the substrate and the purified His-BGPh in 50 mM phosphate buffer (pH 6) with 0.1% Triton X-100 and 0.3 M NaCl. For the hydrolysis of p-nitrophenyl (p-Nph) β-D-saccharides, the reaction was terminated by the addition of 1 M Na2CO3 (1 ml), then centrifuged at 15,000×g for 10 min. The concentration of the p-Nph group in the supernatant was quantified by measuring the absorbance at 400 nm. For the hydrolysis of β-D-glucoside, the released glucose was analyzed with a Glucose C-II Test kit (Wako Pure Chemicals, Japan). Initial velocities were obtained directly from the initial slopes of the time course plots. The Km and kcat values were calculated using the Michaelis-Menten equation and the least squares method (12). The subsite affinity for a long alkyl chain was determined using the method reported previously (13-15) on the basis of the subsite theory (16).
# [5] = substrate: O=[N+]([O-])c1ccc(O[C@@H]2OC[C@@H](O)[C@H](O)[C@H]2O)cc1; assay: purified protein, by the assay type; format: biochemical; details: other: His-BGPh, 90° C. and pH 6.0
# Protocol: as §2
# [6] = substrate: CO[C@@H]1O[C@H](CO)[C@@H](O)[C@H](O)[C@H]1O; assay: purified protein, by the assay type; format: biochemical; details: other: His-BGPh, 90° C. and pH 6.0
# Protocol: as §2
# [7] = substrate: O=[N+]([O-])c1ccc(O[C@@H]2O[C@H](CO)[C@@H](O)[C@H](O)[C@H]2O)cc1; assay: purified protein, by the assay type; format: biochemical; details: other: His-BGPh, 90° C. and pH 6.0
# Protocol: as §2
# [8] = substrate: CCCCCO[C@@H]1O[C@H](CO)[C@@H](O)[C@H](O)[C@H]1O; assay: purified protein, by the assay type; format: biochemical; details: other: His-BGPh, 90° C. and pH 6.0
# Protocol: as §2
# [9] = substrate: CCCCCCCCCCCCO[C@@H]1O[C@H](CO)[C@@H](O)[C@H](O)[C@H]1O; assay: purified protein, by the assay type; format: biochemical; details: other: His-BGPh, 90° C. and pH 6.0
# Protocol: as §2
# [10] = substrate: O=[N+]([O-])c1ccc(O[C@@H]2O[C@H](CO)[C@H](O)[C@H](O)[C@H]2O)cc1; assay: purified protein, by the assay type; format: biochemical; details: other: His-BGPh, 90° C. and pH 6.0
# Protocol: as §2
# [11] = substrate: O=[N+]([O-])c1ccc(O[C@@H]2O[C@H](CO)[C@@H](O)[C@H](O)[C@@H]2O)cc1; assay: purified protein, by the assay type; format: biochemical; details: other: His-BGPh, 90° C. and pH 6.0
# Protocol: as §2
# [12] = substrate: CCCCCCCCO[C@@H]1O[C@H](CO)[C@@H](O)[C@H](O)[C@H]1O; assay: purified protein, by the assay type; format: biochemical; details: other: His-BGPh, 90° C. and pH 6.0
# Protocol: as §2
# [13] = substrate: CCCCCCCCCCCO[C@@H]1O[C@H](CO)[C@@H](O)[C@H](O)[C@H]1O; assay: purified protein, by the assay type; format: biochemical; details: other: His-BGPh, 90° C. and pH 6.0
# Protocol: as §2
# [14] = substrate: CCCCCCO[C@@H]1O[C@H](CO)[C@@H](O)[C@H](O)[C@H]1O; assay: purified protein, by the assay type; format: biochemical; details: other: His-BGPh, 90° C. and pH 6.0
# Protocol: as §2
# [15] = substrate: CCCCCCCCCCO[C@@H]1O[C@H](CO)[C@@H](O)[C@H](O)[C@H]1O; assay: purified protein, by the assay type; format: biochemical; details: other: His-BGPh, 90° C. and pH 6.0
# Protocol: as §2
# [16] = Heat treatment of the purified enzyme at 95° C.; format: physicochemical; details: 50 mM phosphate buffer (pH 6.0), 250 mM NaCl, 95° C. for 1 hour
# Protocol: When the enzyme is treated in 50 mM phosphate buffer (pH 6.0) containing 250 mM NaCl at 95° C. for 1 hour, its activity is retained at the level of 80% based on the initial level. The enzyme has an optimum pH of pH 6.0 and an optimum temperature of 100° C. or higher in terms of the enzymatic activity.
# [17] = substrate: OCc1ccccc1O[C@@H]1O[C@H](CO)[C@@H](O)[C@H](O)[C@H]1O; assay: purified protein, by the assay type; details: other: His-BGPh, 90° C. and pH 6.0
# Optimum pH = format: biochemical; details: p-Nph-β-D-Glcp, 90° C.
# Protocol: The pH of the reaction mixtures ranged from 3.9 to 5.5 in sodium acetate buffer and from 5.5 to 7.99 in phosphate buffer. Optical density measurements at A405 were performed as described for the enzyme assays.
# [18] = Subsite affinity of BGPh for a long alkyl chain; format: biochemical; details: from kcat/Km of n-Dodecyl- vs Methyl-β-D-Glcp
# Protocol: as §1
# Optimum temperature = format: biochemical; details: p-Nph-β-D-Glcp; listed as purified enzyme
# Protocol: The enzyme reactions were carried out in duplicate at temperatures ranging from 50° C. to 100° C. for 30 min. Optical density measurements at A405 were performed as described for the enzyme assays.
# T1 sequence (P22498 whole entry N62M/R140P/N205M/N208M/A235H/V319M/K445F/G469C): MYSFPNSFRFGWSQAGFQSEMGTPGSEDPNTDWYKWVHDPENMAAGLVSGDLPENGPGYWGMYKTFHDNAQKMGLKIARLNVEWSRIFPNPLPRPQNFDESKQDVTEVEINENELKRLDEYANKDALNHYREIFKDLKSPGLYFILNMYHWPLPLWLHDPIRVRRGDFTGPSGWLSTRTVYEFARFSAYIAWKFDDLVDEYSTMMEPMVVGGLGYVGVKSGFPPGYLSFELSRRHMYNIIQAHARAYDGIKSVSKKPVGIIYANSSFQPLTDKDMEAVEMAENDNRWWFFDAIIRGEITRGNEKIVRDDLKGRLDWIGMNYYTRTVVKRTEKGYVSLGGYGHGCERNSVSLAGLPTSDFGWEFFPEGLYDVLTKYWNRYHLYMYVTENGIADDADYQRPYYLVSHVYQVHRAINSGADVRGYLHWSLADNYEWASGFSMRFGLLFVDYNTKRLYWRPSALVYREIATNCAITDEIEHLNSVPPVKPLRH
molecule,measurement,setting,value
CCCCCCCCO[C@@H]1O[C@H](CO)[C@@H](O)[C@H](O)[C@H]1O [n-Octyl-β-D-Glcp],Km,[1],700 µM
same,kcat,[1],313 s⁻¹
same,kcat/Km relative to that for laminaribiose,[2],0.48 fold
same,kcat/Km relative to that for p-Nph-β-D-Glcp,[2],0.4 fold
CCCCCCO[C@@H]1O[C@H](CO)[C@@H](O)[C@H](O)[C@H]1O [n-Hexyl-β-D-Glcp],Km,[1],1000 µM
same,kcat,[1],263 s⁻¹
OCc1ccccc1O[C@@H]1O[C@H](CO)[C@@H](O)[C@H](O)[C@H]1O [Salicin],Km,[1],5000 µM
same,kcat,[1],880 s⁻¹
OC[C@H]1O[C@@H](O[C@H]2[C@H](O)[C@@H](CO)OC(O)[C@@H]2O)[C@H](O)[C@@H](O)[C@@H]1O (some centres unmarked) [Laminaribiose],kcat,[3],184 s⁻¹
same,Km,[1],1000 µM
same,kcat,[1],908 s⁻¹
OC[C@H]1O[C@@H](O[C@H]2[C@H](O)[C@@H](O)[C@H](O[C@H]3[C@H](O)[C@@H](O)[C@H](O[C@H]4[C@H](O)[C@@H](O)C(O)O[C@@H]4CO)O[C@@H]3CO)O[C@@H]2CO)[C@H](O)[C@@H](O)[C@@H]1O (some centres unmarked) [Cellotetraose],efficiency of hydrolysis by His-BGPh,[3],low efficiency
same,kcat,[1],584 s⁻¹
same,Km,[1]; read-out: Km,1700 µM
same,efficiency of hydrolysis by Sβ-gly,[1],high efficiency
"O=[N+]([O-])c1ccc(O[C@@H]2O[C@H](CO)[C@@H](O)[C@H](O)[C@H]2O)cc1 [p-Nph-β-D-Glcp, p-nitrophenyl β-D-glucopyranoside]",Km,[1],500 µM
same,kcat,[1],542 s⁻¹
Cellobiose,kcat,[3],194 s⁻¹
same,Km,[1],30000 µM
same,kcat,[1],1333 s⁻¹
CCCCCO[C@@H]1O[C@H](CO)[C@@H](O)[C@H](O)[C@H]1O [n-Amyl-β-D-Glcp],Km,[1],1100 µM
same,kcat,[1],256 s⁻¹
O=[N+]([O-])c1ccc(O[C@@H]2OC[C@@H](O)[C@H](O)[C@H]2O)cc1 [p-Nph-β-D-Xylp],Km,[1],4000 µM
same,kcat,[1],284 s⁻¹
O=[N+]([O-])c1ccc(O[C@@H]2O[C@H](CO)[C@H](O)[C@H](O)[C@H]2O)cc1 [p-Nph-β-D-Galp],Km,[1],4700 µM
same,kcat,[1],1020 s⁻¹
OC[C@H]1O[C@@H](O[C@H]2[C@H](O)[C@@H](O)[C@H](O[C@H]3[C@H](O)[C@@H](O)C(O)O[C@@H]3CO)O[C@@H]2CO)[C@H](O)[C@@H](O)[C@@H]1O (some centres unmarked) [Cellotriose],efficiency of hydrolysis by His-BGPh,[3],low efficiency
same,kcat,[1],197 s⁻¹
same,Km,[1]; read-out: Km,3000 µM
same,efficiency of hydrolysis by Sβ-gly,[1],high efficiency
OC[C@H]1O[C@@H](OC[C@H]2O[C@@H](O)[C@H](O)[C@@H](O)[C@@H]2O)[C@H](O)[C@@H](O)[C@@H]1O [β-Gentiobiose],kcat,[1],1360 s⁻¹
same,Km,[1]; read-out: Km,100000 µM
B1,Km,[4],80 µM
same,kcat,[4],39 s⁻¹
same,kcat/Km,[4],471570 M⁻¹ s⁻¹
same,Km,[5],100 µM
same,kcat,[5],3 s⁻¹
same,kcat/Km,[5],31830 M⁻¹ s⁻¹
same,Km,[6],40740 µM
same,kcat,[6],35 s⁻¹
same,kcat/Km,[6],850 M⁻¹ s⁻¹
same,Km,[7],350 µM
same,kcat,[7],79 s⁻¹
same,kcat/Km,[7],225670 M⁻¹ s⁻¹
same,Km,[8],2020 µM
same,kcat,[8],31 s⁻¹
same,kcat/Km,[8],15110 M⁻¹ s⁻¹
same,Km,[9],30 µM
same,kcat,[9],36 s⁻¹
same,kcat/Km,[9],1.1529e+06 M⁻¹ s⁻¹
same,Km,[10],1300 µM
same,kcat,[10],123 s⁻¹
same,kcat/Km,[10],94340 M⁻¹ s⁻¹
same,kcat,[11],2 s⁻¹
same,kcat/Km,[11],14600 M⁻¹ s⁻¹
same,Km,[12],200 µM
same,kcat,[12],34 s⁻¹
same,kcat/Km,[12],170700 M⁻¹ s⁻¹
same,Km,[13],50 µM
same,kcat,[13],43 s⁻¹
same,kcat/Km,[13],944370 M⁻¹ s⁻¹
same,Km,[14],540 µM
same,kcat,[14],33 s⁻¹
same,kcat/Km,[14],60280 M⁻¹ s⁻¹
same,Km,[15],80 µM
same,kcat,[15],37 s⁻¹
same,kcat/Km,[15],469620 M⁻¹ s⁻¹
same,activity retained based on the initial level,[16],80%
same,Km,[17],1960 µM
same,kcat,[17],44 s⁻¹
same,kcat/Km,[17],22200 M⁻¹ s⁻¹
same,optimum pH,Optimum pH,6.0
same,subsite affinity A(C11) to bind a long alkyl chain (C11),[18],4.26 kcal/mol
same,optimum temperature,Optimum temperature,≥ 100 °C
